Columns and labels:
Test in all cases: pull-down binding Z-score (relative to library population); higher = stronger binding
Conditions in all cases: RNA library: Library-2
[1] = tested on: TO-N3-2 (biotin conjugate)
Procedure, shortened: (§1)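 The RNA library, end-labelled with Cy5 or Cy3, was heat-folded in phosphate/NaCl/KCl buffer, and 1 μg was incubated at 25 °C for 60 min with streptavidin beads carrying 100 pmol of biotin-conjugated small molecule. Hot SDS released the bound RNA, which was then hybridised to a DNA barcode microarray for 20 h at 55.5 °C. For scoring binding, signal from beads alone was subtracted, replicate barcoded probes were averaged after discarding the highest and lowest, and each value was turned into a Z-score from the library mean and standard deviation.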

TO-N3 (biotin conjugate) = tested on: TO-N3 (biotin conjugate)
Procedure, shortened: as §1

[2] = tested on: TO-3-N3 (biotin conjugate)
Procedure, shortened: as §1

[3] = tested on: TO-3-N3-2 (biotin conjugate)
Procedure, shortened: as §1

Row | Sequence | pull-down binding Z-score [1] | pull-down binding Z-score (TO-N3 (biotin conjugate)) | pull-down binding Z-score [2] | pull-down binding Z-score [3]
1 | GCGCAGCCAGAAACUGGCAGCGC [mismatch-AA] | -0.354 | -0.528 | -0.468 | -0.365
2 | AGGUUGGACAGCUGGUGCUGCAGCUU [SHAPE_invivo_SARS-CoV-2_Motif_420] | 0.891 | 0.754 | 0.658 | 0.159
3 | GUCUGGUAGUCGGAC [IAV_invivo_NA_6_Motif_1+IAV_invivo_NA_6_Motif_1] | -0.21 | -0.173 | -0.00665 | -0.235
4 | CUCUUGUAAUGUAAACAGAUUUAAUGUUGCUAUUACCAGAG | -0.0897 | 0.0725 | 0.0416 | -0.0635
5 | GGGUACGACUUUGAAAGGGAGGGAUACUCUCUAGUCGGAAUAGACCC [IAV_invivo_NP_5_Motif_16+IAV_invivo_NP_5_Motif_16] | 0.638 | 0.986 | 0.779 | 0.439
6 | ACAAUGGCAGACCUCGUCUAUGCUUUAAGGCAUUUUGAUGAAGGUAAUUGU | -1.12 | -0.93 | -0.812 | -0.242
7 | UAAGGAAGGAAGUUCUGUUGAAUUAAAACACUUCUUCUUUG [SHAPE_invitro_SARS-CoV-2_Motif_269] | -0.905 | -1.1 | -0.963 | -0.389
8 | GACUUGCUUUAGCACUCAAUUUGCUUUUGCUUGUC | -1.08 | -0.0156 | 0.241 | -0.00573
9 | UGCGAGAAAUGCUUGCA [SHAPE_invitro_SARS-CoV-2_Motif_85] | -0.155 | 0.918 | 1.12 | -0.0133
10 | GGGUUGGGUUGGGUUGGGUUGGGUUGGGUUGGGUUGGGUU [G4_r(GGGUU)8] | 5.93 | 7.46 | 8.9 | 10.2
11 | UGCAGAUUCAACUUUGAUUGGUGAUUGUGCA | -0.565 | 0.273 | 0.338 | 0.191
12 | GGAAUAAGUAUGAUACUUACCUG [U1snRNP5ss-6] | 1.18 | 1.81 | 1.69 | 0.331
13 | CUUAGUUUUAAG [DMSMaPseq_invitro_SARS-CoV-2_Motif_263] | -1.26 | -1.02 | -0.781 | -0.268
14 | CUUACUGACAAUGUAUACAUUAAAAAUGCAGACAUUGUGGAAG [DMSMaPseq_invitro_SARS-CoV-2_Motif_59] | -0.455 | -0.328 | -0.453 | -0.18
15 | GGGGCUGAGAAACCAAAGUUUC [IAV_invivo_PA_3_Motif_3+IAV_invivo_PA_3_Motif_3] | 0.822 | 0.788 | 0.484 | 0.214
16 | GUUGCGUCACCAAAUGAAUGCAAC | -1.2 | -1.3 | -0.989 | -0.49
17 | AUGAACCACAAAUCAU [DMSMaPseq_invitro_SARS-CoV-2_Motif_444] | -1.03 | 0.254 | 0.463 | -0.31
18 | GGAAUUGCAAUGUCGAUAGAUAUCCUGCUAAUUCC [DMSMaPseq_invitro_SARS-CoV-2_Motif_342] | -0.212 | -0.229 | -0.203 | -0.418
19 | GAGGGGUGUAUACUGCUGCCGUGAACAUGAGCAUGAAAUUGCUUGGUACACGGAACGUUCUGAAAAGAGCUAUGAAUUGCAGACACCUUUU | 0.475 | -0.034 | -0.406 | -0.11
20 | CACUCAAAGGCGGUGCACCAACAAAGGUUACUUUUGGUGAUGACACUGUGAUAGAAGUG [DMSMaPseq_invitro_SARS-CoV-2_Motif_50] | -0.0256 | -0.234 | -0.531 | -0.205
21 | CCUAAACGAACAUGAAAUUUCUUGUUUUCUUAGG | -0.729 | -1.08 | -0.979 | -0.593
22 | UGAAGUAUUUUGUGAAAAUAGGACCUGAGCGCACCUGUUGUCUAUGUGAUAGACGUGCCACAUGCUUUUCCACUGCUUCA [SHAPE_invitro_SARS-CoV-2_Motif_342] | 0.0857 | -0.477 | -0.573 | -0.335
23 | CUUCACAUAUGUAUUGUUCUUUUUACCCUCCAGAUGAGGAUGAAGAAGAAGGUGAUUGUGAAG | -1.19 | -0.606 | -0.494 | -0.0402

Row | Sequence | pull-down binding Z-score [1] | pull-down binding Z-score (TO-N3 (biotin conjugate)) | pull-down binding Z-score [2] | pull-down binding Z-score [3]
24 | UCGUGUUAAAAAUCUGAAUUCUUCUAGAGUUCCUGAUCUUCUGGUCUAAACGAACUAAAUAUUAUAUUAGUUUUUCUGUUUGGAACUUUAAUUUUAGCCAUGG | -0.59 | -0.609 | -0.635 | -0.138
25 | GGGCUCAGAAUAUGACUAUGUCAUAUUCACUCAAACCACUGAAACAGCUC [SHAPE_invitro_SARS-CoV-2_Motif_328] | -0.4 | -0.428 | -0.515 | 0.0239
26 | GCUGAGGCUUCUAAGAAGCCUCGGC | -1.43 | -1.05 | -0.572 | -0.475
27 | CCUGACUUAAAUGGUGAUGUGGUGGCUAUUGAUUAUAAACACUACACACCCUCUUUUAAGAAAGG | -0.275 | -0.206 | -0.161 | 0.00798
28 | GUCUCUGAAGAAGUAGUGGAAAAUCCUACCAUACAGAAAGAC | 0.831 | 0.289 | -0.0809 | 0.0814
29 | UGAUGUUUGUCA | -1.2 | -0.762 | -0.46 | -0.778
30 | AUGGUAAGUGCGAUACUUACCUG [U1snRNP5ss-24] | 0.974 | -0.213 | -0.32 | -0.139
31 | GUGCUUGGGACAUUUGAUACCGCAC [IAV_invivo_PB2_1_Motif_30+IAV_invivo_PB2_1_Motif_30] | 0.571 | -0.171 | -0.258 | -0.147
32 | GGAUGGUUACAGGACUAAGGAACAAUCCGUCC [IAV_invivo_HA_4_Motif_14+IAV_invivo_HA_4_Motif_14] | -0.0521 | -0.295 | -0.461 | -0.14
33 | GUUCGUGUUGUUUUAGAUUUCAUCUAAACGAAC | -0.397 | -1.12 | -0.845 | -0.562
34 | GUAUGAGCAGUAUAU [DMSMaPseq_invitro_SARS-CoV-2_Motif_451] | -0.416 | -0.709 | -0.638 | -0.295
35 | GUUGUUACUCACAAUUUUGACUUCACUUUUAGUUUUAGUCCAGAGUACUCAAU | -0.924 | -0.965 | -0.826 | -0.324
36 | GUGCGGCACAGGCACUAGUACUGAUGUCGUAU [SHAPE_invitro_SARS-CoV-2_Motif_246] | 0.326 | 0.568 | 0.297 | 0.0228
37 | GCAUUGAUUUAGAUGAGUGGAGUAUGGCUACAUACUACUUAUUUGAUGAGUCUGGUGAGUUUAAAUUGGCUUCACAUAUGU | 0.256 | 0.0261 | -0.215 | -0.04
38 | CUGUAGCUGCAUUUCACCAAGAAUGUAGUUUACAG [DMSMaPseq_invitro_SARS-CoV-2_Motif_500] | -0.632 | 0.121 | 0.437 | -0.0203
39 | CAGAGUCGUAUUUGUCUUAUGGGCACAUGGCUUUG [SHAPE_invivo_SARS-CoV-2_Motif_350] | -0.215 | 0.131 | 0.361 | -0.171
40 | GCAGACUUCAAAGUUUGC | -1.04 | -0.139 | 0.23 | -0.0803
41 | UGUGACCUUCAAAAUUAUGGUGAUAGUGCAACAUUACCUAAAGGCAUAAUGAUGAAUGUCGCA | -1.05 | -0.621 | -0.431 | -0.486
42 | CUAUACAUUCUUUAAGAGUUUGUGUAG | -1.28 | -0.583 | -0.365 | -0.294
43 | GGAACCUAGUAAUAGGUUUCC [DMSMaPseq_invitro_SARS-CoV-2_Motif_479] | -0.779 | 0.439 | 0.7 | -0.0496
44 | CUGUUGGUACCAAUUUACCUUUACAGCUAGGUUUUUCUACAGGUGUUAACCUAGUUGCUGUACCUACAG | -1.02 | -1.16 | -0.959 | -0.514
45 | GCUAUGGGUAUUAUUGCUAUGUCUGCUUUUGCAAUGAUGUUUGUCAAACAUAAGCAUGCAUUUCUCUGUUUGUUUUUGUUACCUUCUCUUGCCACUGUAGC | -0.573 | -0.98 | -0.966 | -0.526
46 | UACAAACUUGUG [DMSMaPseq_invitro_SARS-CoV-2_Motif_398] | -1.04 | -1.02 | -0.625 | -0.609

Row | Sequence | pull-down binding Z-score [1] | pull-down binding Z-score (TO-N3 (biotin conjugate)) | pull-down binding Z-score [2] | pull-down binding Z-score [3]
47 | GUUGAUUUUUGUGGAAAGGGCUAUCAUCUUAUGUCCUUCCCUCAGUCAGC [SHAPE_invitro_SARS-CoV-2_Motif_447] | -0.89 | -1.18 | -1.02 | -0.325
48 | UCUCCUCAUUUACUGUGAAUGUGAGGGGA [IAV_invivo_PB2_1_Motif_31+IAV_invivo_PB2_1_Motif_31] | -0.905 | -0.72 | -0.428 | -0.219
49 | GGUCUCCGACGGAGGCC [IAV_invivo_PB1_2_Motif_32+IAV_invivo_PB1_2_Motif_32] | -1.15 | -0.183 | 0.0169 | -0.224
50 | GAUGGUGGCUGUAUUAAUGCUAACCAAGUCAUCGUC | 1.4 | 0.31 | -0.273 | 0.129
51 | GUGGGGUAUUCAUCACCCGC [IAV_invivo_HA_4_Motif_9+IAV_invivo_HA_4_Motif_9] | 0.897 | 1.62 | 1.69 | 0.689
52 | UGGGUUGGGUUGGGUUGGGUUGGGUUGGGU [G4_r(UGGGU)6] | 5.72 | 7.32 | 8.7 | 10.2
53 | AAGGAGCUGGUGGCCAUAGUUACGGCGCCGAUCUAAAGUCAUUUGACUUAGGCGACGAGCUUGGCACUGAUCCUU [DMSMaPseq_invitro_SARS-CoV-2_Motif_14] | 0.492 | 0.349 | 0.0504 | 0.134
54 | GCGCUGCCAGAAACUGGCGAGCGC [bulge-G] | -0.578 | -0.593 | -0.426 | -0.354
55 | CAACAAAAGUUG [SHAPE_invivo_SARS-CoV-2_Motif_413] | -1.52 | -1.44 | -0.893 | -0.787
56 | CAGAGUCACAUGUUGACACUG | -0.894 | -0.0159 | 0.214 | -0.263
57 | GUGCUAAGCAC | -1.24 | -0.59 | -0.151 | -0.435
58 | GCAUACAGUCGCUACAGGAUUGGCAACUAUAAAUUAAACACAGACCAUUCCAGUAGCAGUGACAAUAUUGC [SHAPE_invivo_SARS-CoV-2_Motif_513] | 0.259 | 0.116 | -0.0312 | 0.365
59 | AGUGUAAAAGUGCCUUUUACAUU [DMSMaPseq_invitro_SARS-CoV-2_Motif_79] | -1.12 | -0.863 | -0.69 | -0.399
60 | GUGAGAGAGAGCCGGAACCCAGGGAAUGCUGAGUUCGAAGAUCUCAC [IAV_invivo_NP_5_Motif_14+IAV_invivo_NP_5_Motif_14] | 1.5 | 0.687 | 0.351 | 0.125
61 | CCGGUAAGGACGAUACUUACCUG [U1snRNP5ss-23] | -0.181 | 0.0948 | 0.363 | -0.205
62 | GAUAACAACUUC [SHAPE_invitro_SARS-CoV-2_Motif_16] | -0.77 | 0.252 | 0.519 | 0.0515
63 | UCCGAUUUACAGGA [DMSMaPseq_invitro_SARS-CoV-2_Motif_227] | -0.256 | -0.272 | -0.342 | -0.0117
64 | UCAAGACUAUUCAACCAAGGGUUGAAAAGAAAAAGCUUGA [SHAPE_invivo_SARS-CoV-2_Motif_22] | -0.823 | -0.551 | -0.217 | -0.14
65 | GACUCUGAGCCAGUGCUCAAAGGAGUC | -0.0814 | -0.677 | -0.523 | -0.434
66 | CUAAGUCACUAACUGAGAAUAAAUAUUCUCAAUUAGAUGAAGAG | -0.981 | -1.15 | -1.02 | -0.135
67 | GGGUAGGGUUUGGGGGAGAGCGUGGGCUGGGGUUCAGGGACA [pre-miRNA-1229_WT_FL] | 5.13 | 6.62 | 7.43 | 8.09
68 | GUACUUGGUAGUUUAGCUGCCACAGUAC | -0.818 | -0.688 | -0.525 | -0.291

— the supplement of paper PMC11865577
